Source: patent publication US20240277804A1, “TRIPLE COMBINATION THERAPY” (Immutep S.A.S., priority 2021, published 2024)

Experiments:
[1] = Pharmacokinetics of IMP321 after s.c. injection in cancer patients; assay type: in vivo, human; details: for at least 24 hours after s.c. injection; patients injected with IMP321 doses of more than 6 mg
Experimental: (§1) Doses of 6-30 mg per subcutaneous (s.c.) injection of IMP321 have been shown, thus far, to be safe and provide an acceptable systemic exposure based on the results of pharmacokinetics data obtained in cancer patients.

[2] = Safety of s.c. IMP321 in cancer patients; assay type: in vivo, human
Experimental: as §1

B1: IMP321: recombinant soluble human LAG-3Ig fusion protein, 160-kDa dimer: extracellular domain of hLAG-3 fused to human IgG1 Fc; APC activator (protein)
chain: LQPGAEVPVVWAQEGAPAQLPCSPTIPLQDLSLLRRAGVTWQHQPDSGPPAAAPGHPLAPGPHPAAPSSWGPRPRRYTVLSVGPGGLRSGRLPLQPRVQLDERGRQRGDFSLWLRPARRADAGEYRAAVHLRDRALSCRLRLRLGQASMTASPPGSLRASDWVILNCSFSRPDRPASVHWFRNRGQGRVPVRESPHHHLAESFLFLPQVSPMDSGPWGCILTYRDGFNVSIMYNLTVLGLEPPTPLTVYAGAGSRVGLPCRLPAGVGTRSFLTAKWTPPGGGPDLLVTGDNGDFTLRLEDVSQAQAGTYTCHIHLQEQQLNATVTLAIITVTPKSFGSPGSLGKLLCEVTPVSGQERFVWSSLDTPSQRSFSGPWLEAQEAQLLSQPWQCQLYQGERLLGAAVYFTELSSPG
modifications: left off: small tags and cut ends; a dimerising Fc or GST
blood concentration of IMP321 [1]: > 1 ng/mL
safety / acceptable systemic exposure ([2]; doses of 6-30 mg per s.c. injection): safe
dose limiting toxicity ([2]; to date): No dose limiting toxicity has been observed
